Where “and” joins values, the source holds several entries; their conditions need not be identical. Equal entries are not always repeated. Each block holds one molecule with its values, some of them ahead of it.
B1: GST-MmCheFCTD (domain or fragment)
chain: IKSLLPKSEDDLDSEMAVESWSGDKLKNEVEQLAPEEQEILTAIYTGITSLELPGMMGMDIDEVEKVLEKLIDQGFLDLVRIRKETDLTEKGRAVTNFIITNF
modifications: GST carrier left out; limits taken as the C-terminal 103 residues (246-348, F348 terminal) used in the CheY:CheFCTD fusion, exact limits are in Fig. S3a; fusion is mainly a dimer by mass photometry /
B2: GST-MmCheFCTD (domain or fragment)
chain: B1 chain
B3: Methanococcus maripaludis CheY, activated with BeF3- (phosphorylated state mimicked) (natural protein, UniProt Q6LYQ5 1-123, looked up)
chain: MASIVKTMIVDDSAFMRNILKRILSTTNKYVVIGEAANGADAIKMAEELQPDLISMDIVMPETDGITATKAIKEKTPEIKIVMCTSVDQEQKMIDAVNAGADGYIVKPFQAPKILEQFNKLFP
modifications: BeF3- phosphomimic (2 mM BeF2 and 20 mM NaF in the buffer); phosphorylation site D57
notes: CheY of Methanococcus maripaludis; The same protein as m10, in buffer with 2 mM BeF2, 20 mM NaF and 20 mM MgCl2; also called CheY-P; source: E. coli BL21 (DE3), purified (Ni-NTA, SEC)

Columns and labels:
FliM FliMN peptide = FliM FliMN peptide (UniProt P06974); details: cited from earlier work
[1] = target: Pyrococcus horikoshii CheF (Pyrococcus horikoshii); assay: mass photometry; OneMP mass photometer; protein stocks diluted in HEPES buffer; typical working concentrations of MmCheF 25–50 nM
[2] = target: Thermococcus kodakarensis CheF (Thermococcus kodakarensis); assay: as above
[3] = target: Methanococcus maripaludis CheF (Methanococcus maripaludis); assay: as above
[4] = target: FliM 1-249 (Thermotoga maritima) (UniProt Q9WZE6); details: cited from earlier work
Sequence of FliM 1-249 (Thermotoga maritima) (Q9WZE6 1-249): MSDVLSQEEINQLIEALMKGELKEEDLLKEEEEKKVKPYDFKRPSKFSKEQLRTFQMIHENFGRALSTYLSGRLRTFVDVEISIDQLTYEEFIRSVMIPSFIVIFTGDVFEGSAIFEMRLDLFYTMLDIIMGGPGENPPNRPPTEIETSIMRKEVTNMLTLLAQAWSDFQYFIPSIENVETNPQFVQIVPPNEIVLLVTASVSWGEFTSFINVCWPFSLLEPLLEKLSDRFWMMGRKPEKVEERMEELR

GST-MmCheFCTD [5] = target: B2; assay: mass photometry; OneMP mass photometer; protein stocks diluted in HEPES buffer; typical working concentrations of MmCheF 25–50 nM; details: both partners purified
[6] = target: B3; assay: ITC; GST-MmCheFCTD (25 µM) in the sample cell, titrated with MmCheY; 25 °C; 20 mM HEPES-Na pH 7.5, 200 mM NaCl, 20 mM KCl, 20 mM MgCl2, 20 mM NaF, 2 mM BeF2; details: both partners purified
GST-MmCheFCTD [7] = target: B2; assay: as above; details: both partners purified

Molecule: CheY (from UniProt P0AE67)
Kd (FliM FliMN peptide): 27 µM

percent of observations in the dimer species [1]: 89%
stoichiometry N [1]: 2
Molecule: Pyrococcus horikoshii CheF (natural protein)

stoichiometry N [2]: 2
Molecule: Thermococcus kodakarensis CheF (natural protein)

stoichiometry N [3]: 2
Molecule: Methanococcus maripaludis CheF (natural protein)

Molecule: CheY (from UniProt Q56312)
Kd [4]: 0.039 µM

Molecule: B1
stoichiometry N (GST-MmCheFCTD [5]): 2 and 4

Molecule: B2
Kd [6]: 1.24 ± 0.414 µM

Molecule: B3
stoichiometry N (GST-MmCheFCTD [7]): 1

From publication PMC9126983, “Structural insights into the mechanism of archaellar rotational switching” (Nature Communications, 2022)
